One substance from PMC2733743 can be followed below.

Test [1] addresses endogenous cortactin of MTLn3 cells (rat (endogenous in MTLn3)) (UniProt Q66HL2). Nature of the test: FRET or BRET.
The target of test [2] is WT cortactin stably expressed in MTLn3 cells (endogenous cortactin knocked down) (rat). Nature of the test: FRET or BRET. For orientation: Bioluminescence resonance energy transfer reports proximity on the nanometre scale.
WT cortactin stably expressed in MTLn3 cells (endogenous cortactin knocked down) (rat), sequence (Q66HL2 whole entry): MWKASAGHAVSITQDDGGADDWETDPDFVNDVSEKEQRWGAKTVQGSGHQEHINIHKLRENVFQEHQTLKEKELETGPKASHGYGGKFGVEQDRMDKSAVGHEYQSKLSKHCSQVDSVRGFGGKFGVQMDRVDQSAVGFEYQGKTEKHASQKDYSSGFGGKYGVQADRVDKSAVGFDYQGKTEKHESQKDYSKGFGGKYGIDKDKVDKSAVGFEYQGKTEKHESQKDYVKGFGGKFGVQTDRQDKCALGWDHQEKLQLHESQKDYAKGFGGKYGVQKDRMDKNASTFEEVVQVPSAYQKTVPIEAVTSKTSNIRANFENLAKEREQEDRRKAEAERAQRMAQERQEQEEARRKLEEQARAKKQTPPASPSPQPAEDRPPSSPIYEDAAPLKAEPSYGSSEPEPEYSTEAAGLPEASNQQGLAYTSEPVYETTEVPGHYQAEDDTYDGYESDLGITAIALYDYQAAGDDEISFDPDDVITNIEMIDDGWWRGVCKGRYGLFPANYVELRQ

Turning to “endogenous cofilin of MTLn3 cells (from UniProt P45592 1-166) (natural protein)”, the FRET efficiency in test [1] worked out at 11.8%; in test [2], 4.2%.
